According to patent US20120077964A1 (Merck Sharp & Dohme, published 2012):
Numbering of substitutions follows the chain as printed. Read-outs that look alike come from different tables or passages of the source.

Experiments:
Assay in all cases: cell-based or functional assay
[1] = target: T1, recombinant human PCSK9, V5-, His-tagged (human, UniProt Q8NBP7 31-692, limits assumed)
[2] = target: T1, recombinant human PCSK9, V5-, His-tagged; remark: listed apart in the source
[3] = target: T1, recombinant human PCSK9, V5-, His-tagged; remark: listed apart in the source
[4] = target: T1, recombinant human PCSK9, V5-, His-tagged; remark: listed apart in the source
[5] = target: T1, recombinant human PCSK9, V5-, His-tagged; remark: listed apart in the source

T1 sequence (Q8NBP7 31-692 limits assumed): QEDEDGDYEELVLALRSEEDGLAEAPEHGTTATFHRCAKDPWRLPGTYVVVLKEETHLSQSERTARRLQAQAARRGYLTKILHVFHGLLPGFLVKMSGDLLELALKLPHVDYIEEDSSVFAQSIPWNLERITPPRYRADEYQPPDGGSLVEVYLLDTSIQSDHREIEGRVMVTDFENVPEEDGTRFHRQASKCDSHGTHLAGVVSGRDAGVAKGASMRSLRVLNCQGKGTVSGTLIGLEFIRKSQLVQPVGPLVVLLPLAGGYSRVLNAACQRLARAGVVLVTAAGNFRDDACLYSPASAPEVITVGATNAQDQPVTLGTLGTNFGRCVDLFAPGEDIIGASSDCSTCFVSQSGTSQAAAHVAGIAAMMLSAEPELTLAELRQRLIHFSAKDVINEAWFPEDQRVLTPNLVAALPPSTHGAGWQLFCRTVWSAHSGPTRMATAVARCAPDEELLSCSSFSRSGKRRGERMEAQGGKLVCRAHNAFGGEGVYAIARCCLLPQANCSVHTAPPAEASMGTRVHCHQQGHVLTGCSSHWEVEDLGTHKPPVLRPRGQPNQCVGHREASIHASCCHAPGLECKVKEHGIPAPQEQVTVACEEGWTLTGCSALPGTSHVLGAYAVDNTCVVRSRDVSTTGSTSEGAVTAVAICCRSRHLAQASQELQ

B1: 1CX1G08 Fab (Fab, V domains shown)
VH: QVQLVESGGGLVQPGGSLRLSCAASGFTFSDYWVSWVRQAPGKGLEWVSFISYDGSSTYYADSVKGRFTISRDNSKNTLYLQMNSLRAEDTAVYYCARTYFEGVDVWGQGTLVTVSS
VL: DIELTQPPSVSVAPGQTARISCSGDNIGTYYVHWYQQKPGQAPVLVIYDDSNRPSGIPERFSGSNSGNTATLTISGTQAEDEADYYCGTWDNTSFNLVFGGGTKLTVLG
[1]
  IC50: Fab titrated against PCSK9 fixed at 25 µg/ml, recovery of cellular diI-LDL uptake (Exopolar assay): 267 nM

B2: 3CX4B08 Fab (Fab, V domains shown)
VH: QVQLVESGGGLVQPGGSLRLSCAASGFTFSNYTMNWVRQAPGKGLEWVSFISSSSSETYYADSVKGRFTISRDNSKNTLYLQMNSLRAEDTAVYYCARGYGDMVDLWGQGTLVTVSS
VL: DIELTQPPSVSVAPGQTARISCSGDSIPTYYVAWYQQKPGQAPVLVIYSDTDRPSGIPERFSGSNSGNTATLTISGTQAEDEADYYCQSFDNHGYHVFGGGTKLTVLG
[2]
  IC50: Fab titrated against PCSK9 fixed at 25 µg/ml, recovery of cellular diI-LDL uptake (Exopolar assay): 127 nM

B3: 3BX5C01 Fab (Fab, V domains shown)
VH: QVQLVQSGAEVKKPGESLKISCKGSGYSFTSYGISWVRQMPGKGLEWMGMIDPSDSFTTYSPSFQGQVTISADKSISTAYLQWSSLKASDTAMYYCARGYYFTYALQPMDHWGQGTLVTVSS
VL: DIELTQPPSVSVAPGQTARISCSGDNLRDYIVHWYQQKPGQAPVLVIYDDSNRPSGIPERFSGSNSGNTATLTISGTQAEDEADYYCGFDNGGDIDVFGGGTKLTVLG
[3]
  IC50: Fab titrated against PCSK9 fixed at 25 µg/ml, recovery of cellular diI-LDL uptake (Exopolar assay): 1250 nM

B4: 3CX2A06 Fab (Fab, V domains shown)
VH: QVQLVQSGAEVKKPGESLKISCKGSGYSFSNFWIAWVRQMPGKGLEWMGIIDPSDSWTRYSPSFQGQVTISADKSISTAYLQWSSLKASDTAMYYCARGDGQDFDNWGQGTLVTVSS
VL: DIQMTQSPSSLSASVGDRVTITCRASQNINSYLNWYQQKPGKAPKLLIYAASSLQSGVPSRFSGSGSGTDFTLTISSLQPEDFAVYYCLQNYDLPNTFGQGTKVEIKR
[4]
  IC50: Fab titrated against PCSK9 fixed at 25 µg/ml, recovery of cellular diI-LDL uptake (Exopolar assay): 107 nM

B5: 3CX3D02 Fab (Fab, V domains shown)
VH: QVQLVQSGAEVKKPGESLKISCKGSGYSFTNSWIGWVRQMPGKGLEWMGIIYPSDSYTIYSPSFQGQVTISADKSISTAYLQWSSLKASDTAMYYCARGGGYYYALMDVWAQGTLVTVSS
VL: B4 VL with N28T, N30S, S31T, Y32W, V85T, N91D, Y92S, D93S, N96L
[5]
  IC50: Fab titrated against PCSK9 fixed at 25 µg/ml, recovery of cellular diI-LDL uptake (Exopolar assay): 269 nM
